The experiment has as its target T1, GST-SicA (Salmonella enterica serovar Typhimurium, UniProt P69066 1-165).
T1 construct: SicA, the chaperone for SipC, Salmonella enterica serovar Typhimurium; source: GST-tagged recombinant protein, purified
Put plainly: pull-down; purified His-SipC-N and derivatives immobilised on Ni-NTA beads, 1 hr at 4°C; GST or GST-SicA added, 2 hrs at 4°C; washed four times in PBS with 1% NP-40; blotted with anti-His and anti-GST. The settings on record: both partners purified.

Here are results for 1 molecule from PMC3609803, “SipB-SipC Complex Is Essential for Translocon Formation” (PLoS ONE, 2013).

T1 sequence (P69066 whole entry): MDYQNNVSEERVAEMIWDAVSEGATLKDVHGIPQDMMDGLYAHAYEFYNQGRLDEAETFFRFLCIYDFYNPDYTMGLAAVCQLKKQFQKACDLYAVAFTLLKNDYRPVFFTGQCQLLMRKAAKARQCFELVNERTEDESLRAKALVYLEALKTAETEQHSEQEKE

B1: His-SipC-N (domain or fragment)
chain: MLISNVGINPAAYLNNHSVENSSQTASQSVSAKDILNSIGISSSKVSDLGLSPTLSAPAPGVLTQTPGTITSFLKASIQNTDMNQDLNALANNVTTKANEVVQTQLREQQAEVGKFFDIS
notes: N-terminal region of SipC of Salmonella enterica serovar Typhimurium; also called wild-type SipC-N; source: His-tagged recombinant protein, purified
In the case of B1, the binding result was “binds”.
